The text below walks through data of US20180016339A1 (University of Washington, published 2018).

The target in the assay is T1, human MICB expressed on cells (TRAMP-MICB) (human, UniProt Q29980 23-383).
T1 construct: also called TC2 derivative TRAMP-MICB
T1 sequence: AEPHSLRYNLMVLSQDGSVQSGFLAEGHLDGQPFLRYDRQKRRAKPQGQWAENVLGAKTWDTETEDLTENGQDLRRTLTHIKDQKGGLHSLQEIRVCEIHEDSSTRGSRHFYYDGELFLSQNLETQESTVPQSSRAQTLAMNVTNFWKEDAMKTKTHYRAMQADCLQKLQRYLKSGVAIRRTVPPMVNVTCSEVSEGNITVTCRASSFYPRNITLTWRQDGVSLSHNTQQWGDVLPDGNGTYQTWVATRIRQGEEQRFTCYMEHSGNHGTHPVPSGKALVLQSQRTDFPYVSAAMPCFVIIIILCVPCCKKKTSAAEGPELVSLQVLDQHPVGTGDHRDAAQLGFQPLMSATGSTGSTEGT
In words: flow cytometry on TRAMP-MICB cells, 2 ug/ml antibody, PE goat anti-mouse IgG. For orientation: Flow cytometry measures light scatter and fluorescence of single cells or particles in a stream.

Procedure: Cells were analyzed with BD FACSscan. Data were analyzed with CellQuest software.

B1: monoclonal antibody P2B10G5 (antibody, V domains shown)
VH: EVQLEESGPGLVKPSQSLSLTCTVTGYSITSDYAWNWIRQFPGNKLEWMGYISYSGSTNYNPSLKSRISITRDTSKNQFFLQLNSVITEDTATYYCARGGTYFDYWGQGTTLTVSS
VL: DIVLTQTTSYLSVSLGGRVTIACKASAHINNWLAWYQQKPGNAPRLLISDATSLETGVPSRFSGSGSGKDYTLSITSLQTEDVATYYCQHYWSTPWTFGGGTKLEIKR
notes: Mouse hybridoma antibody, IgG1 kappa, raised against recombinant soluble MIC; also called mAb B10G5; anti-sMIC
With B1, the binding result is listed as “binds”.
